Experimental findings from US20070049521A1 are described below.

Test [1] addresses human NPR-C (natriuretic peptide receptor C, clearance receptor), overexpressed on HEK293 cells (human) (UniProt P17342). As to the kind of experiment: cell-based or functional assay.
Test [2] concerns the target NPR-C on ATDC5 cells (mouse chondrogenic cell line) (mouse) (UniProt P70180). As to the kind of experiment: displacement of 125I-Ostn[83-133] from ATDC5 cells. Background: Displacement assays read how much labelled ligand stays bound in the presence of the test substance.

A word on the IC50: it is the concentration needed to halve the response being measured. Higher therefore signals lower potency.

Sequence of NPR-C on ATDC5 cells (mouse chondrogenic cell line) (mouse) (P70180 41-536): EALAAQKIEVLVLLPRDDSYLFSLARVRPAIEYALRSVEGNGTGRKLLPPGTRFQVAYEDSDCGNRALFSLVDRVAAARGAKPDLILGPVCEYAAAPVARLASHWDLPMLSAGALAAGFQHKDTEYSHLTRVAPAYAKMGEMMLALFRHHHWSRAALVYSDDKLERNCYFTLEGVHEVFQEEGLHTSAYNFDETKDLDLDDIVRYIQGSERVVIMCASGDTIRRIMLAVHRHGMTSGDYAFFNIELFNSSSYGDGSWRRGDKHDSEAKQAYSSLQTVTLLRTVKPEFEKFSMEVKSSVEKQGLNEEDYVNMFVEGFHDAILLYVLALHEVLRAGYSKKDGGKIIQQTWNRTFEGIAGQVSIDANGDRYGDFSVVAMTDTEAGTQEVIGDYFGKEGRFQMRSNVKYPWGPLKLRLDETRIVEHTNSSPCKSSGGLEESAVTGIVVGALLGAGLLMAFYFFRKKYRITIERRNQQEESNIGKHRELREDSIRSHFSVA
Sequence of human NPR-C (natriuretic peptide receptor C, clearance receptor), overexpressed on HEK293 cells (human) (P17342 27-541): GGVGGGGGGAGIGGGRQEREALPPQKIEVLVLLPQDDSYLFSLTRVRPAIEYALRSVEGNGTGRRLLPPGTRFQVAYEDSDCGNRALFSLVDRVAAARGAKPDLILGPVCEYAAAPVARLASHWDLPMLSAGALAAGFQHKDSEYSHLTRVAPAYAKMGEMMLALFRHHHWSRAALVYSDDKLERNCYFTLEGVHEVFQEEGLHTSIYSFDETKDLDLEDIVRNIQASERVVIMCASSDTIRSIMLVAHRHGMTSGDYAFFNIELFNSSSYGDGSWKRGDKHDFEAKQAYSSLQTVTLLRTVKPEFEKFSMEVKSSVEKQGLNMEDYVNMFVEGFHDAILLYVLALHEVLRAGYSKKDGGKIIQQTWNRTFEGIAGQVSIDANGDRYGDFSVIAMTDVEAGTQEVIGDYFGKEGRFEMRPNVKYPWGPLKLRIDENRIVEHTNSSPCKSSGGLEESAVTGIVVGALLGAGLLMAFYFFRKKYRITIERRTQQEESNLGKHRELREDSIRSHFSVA

In turn, “N-terminal 6 histidine-tagged recombinant human Ostn rhOstn[27-133] (from UniProt G7NYP9 27-133) (ligand)” registered a cGMP levels of NPR-C-expressing HEK293 cells with 0.1 nM ANP and 10 nM rhOstn[27-133] in test [1] of 8 fold. Turning to rat C-ANF (peptide), in test [2], the concentration for half-maximal inhibition (IC50) was found to be 6.7 nM and the maximal inhibition at 1 µM, difference from that of cold Ostn[83-133] was determined as 15 % less.
